Measurements from patent US20250289893A1 (OXFORD UNIVERSITY INNOVATION, published 2025).

T1: CD1a[H86 A] (human, UniProt P06126 18-295, limits assumed)
T1 construct: also called point mutant CD1a[H86A]
T1 chain: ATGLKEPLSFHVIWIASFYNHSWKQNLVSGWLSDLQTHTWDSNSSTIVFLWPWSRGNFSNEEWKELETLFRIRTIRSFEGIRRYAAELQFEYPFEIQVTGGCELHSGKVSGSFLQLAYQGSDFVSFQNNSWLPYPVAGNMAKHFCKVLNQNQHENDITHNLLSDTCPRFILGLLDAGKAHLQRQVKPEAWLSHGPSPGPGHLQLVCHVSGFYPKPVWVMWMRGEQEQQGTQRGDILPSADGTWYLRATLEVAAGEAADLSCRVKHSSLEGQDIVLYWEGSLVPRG

B1: 110 (VR12112) (antibody, V domains shown)
VH: QSVEESGGRLVTPGTPLTLTCTVSGFSLSSYAMIWVRQAPGKGLEWIGIINSSDNTHYATWAKGRFTISKTSTTVDLKITSPTTEDTATYFCARDPYDYGYGWYFDLWGPGTLVTVSS
VL: AQVLTQTPSPVSAAVGGTVTINCQASQSVFNNKNLAWYQQKPGQPPKLLIYKASTLASGVSSRFKGSGSGTQFALTISGVQCDDAATYYCQGEFSCSSTDCVTFGGGTEVVVK
notes: also called OX110; antibody 110
B2: 116 (VR12117) (antibody, V domains shown)
VH: QSVEESGGRLVTPGTPLTLTCTVSGFSLSNYAMSWVRQAPGKGLEWIGIIYTTGFTYYASWVKGRFTISKTSTTVDLKITSPTTEDTATYFCARGLATYVSPPTRLDLWGQGTLVTVSS
VL: AQVLTQTPSPVSAAVGGTVTINCQASQSIYNSKNLAWYQQKPGQPPKLLIYSASTLASGVPSRFKGSGSGTQFTLTISDLECDDAATYYCQGEFSCSSVDCATFGGGTEVVVK
notes: also called OX116
B3: 77A (VR11851) (antibody, V domains shown)
VH: QSVEESGGRLVTPGTPLTLTCTVSGFSLSSYAMSWVRQAPGKGLEWIGIISSSGTTYYASWAKGRFTISKTSTTVDLKITSPTTEDTATYFCARVDYYSSGWGGLWGPGTLVTVSS
VL: AVEMTQTPASMSAAVGGTVTIKCQASEDIYSNLAWYQQKPGQPPKLLIYGASTLASGVPSRFKGSGSGTEYTLTISGVQCDDAATYYCQCTYDTSSYGNTFGGGTEMVVE
notes: also called OX77a; antibody 77a
B4: 111 (VR12113) (antibody, V domains shown)
VH: QSVEESGGRLVTPGTPLTLTCTASGFSLSTYAMSWVRQAPGKGLEWIGIISSSGSTYYASWAKGRFTISKTSTTVDLKITSPTTEDTATYFCARETWYWLDLWGQGTLVTVSS
VL: AVEMTQTPASVSAAVGGTVTINCQASEDIYSNLAWYQQKPGQPPKLLIYGASTLASGVPSRFKGSGSGTEYTLTISGVQCDDAATYYCQCAYDSSSYGTPFGGGTEVVVK
notes: also called OX111

Experiments:
[1] = target: T1, CD1a[H86 A]; experiment: epitope mapping experiments (not described)
[2] = target: T2, human CD1a expressed on cells (human, UniProt P06126 17-327; P61769 21-119); experiment: flow cytometry, C1R cells, 0.0316 µg/ml antibody
T2 construct: also called HEK - CD1a; C1R - CD1a

[3] = target: Cynomolgus monkey CD1a expressed on HEK-293 cells (Cynomolgus monkey, UniProt A0A2K5VQ68 17-326); experiment: flow cytometry, HEK-293 cells, 10 µg/ml antibody
Sequence of Cynomolgus monkey CD1a expressed on HEK-293 cells (A0A2K5VQ68 entry or part of it): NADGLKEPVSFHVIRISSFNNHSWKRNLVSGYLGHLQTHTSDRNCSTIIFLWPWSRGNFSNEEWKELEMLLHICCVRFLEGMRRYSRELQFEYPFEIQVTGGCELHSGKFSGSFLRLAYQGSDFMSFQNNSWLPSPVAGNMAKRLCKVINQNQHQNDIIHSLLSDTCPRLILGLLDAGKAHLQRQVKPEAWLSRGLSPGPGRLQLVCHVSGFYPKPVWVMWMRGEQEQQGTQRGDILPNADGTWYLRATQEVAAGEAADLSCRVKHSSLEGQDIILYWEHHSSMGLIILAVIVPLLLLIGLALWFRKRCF

[4] = target: T3, human CD1c expressed on HEK-293 cells (human, UniProt P29017 18-333; P61769 21-119); experiment: flow cytometry, HEK-293 cells, 3.16 µg/ml antibody
T3 construct: also called HEK - CD1c

Binder | binding result [1] | Fluorescence Intensity Geomean (normalized to background) [2] [fold over background] | Fluorescence Intensity Geomean (normalized to background) [3] [fold over background] | Fluorescence Intensity Geomean (normalized to background) [4] [fold over background]
B1 | no binding | 17.1 | 13.6 | 1.1
B2 |  | 24.1 | 1.7 | 1.1
B3 |  | 17 | 1.4 | 0.9
B4 |  | 26 | 16.3 | 1.1
